The record followed here is the supplement of paper PMC10126150.

This data set deals with ATP. As to the kind of experiment: switch fluorescence ratio, 500 uM ATP over buffer (Cy3 cluster intensity, sum of 5 cycles each) (fold (ratio)); higher = stronger signal-on switching upon ATP binding; sequences stand for … in TCGTCGGCAGCGTCAGATGTGTATAAGAGACAGTTTTTTTTTTTTTTTTTTTTTTTTT…TC. The note with it: aptamer strand: ATP DNA aptamer (quencher-CACCTGGGGGAGTATTGCGGAGGAAGG + anchor), 100 nM annealed; ATP concentration: 500 uM. The method in brief: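 For every switch-domain sequence, the fluorescence ratio is the mean of per-cluster values, each being summed target-cycle Cy3 intensity over summed buffer-cycle Cy3 intensity. Clusters outside 100-1000 RFU were excluded. On a modified Illumina MiSeq flow-cell, the Cy3-labelled switching-strand clusters were annealed to 100 nM quencher-labelled ATP aptamer, imaged in selection buffer and then after 15 min with 500 uM ATP at 22 °C. Five such cycles were run, with NaOH stripping and re-annealing between them.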

± gives the standard deviation of the averaged measurements.
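Also: ATP exposure 15 min at 22 °C before imaging.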

For TAGGGCACGG, the switch fluorescence ratio amounted to 1.02 ± 0.035.

As to GGACTGTGGG, the switch fluorescence ratio is 1.02 ± 0.044. As for TGGGGACCGG, the figure is 1.01 ± 0.027; as for AAGAGGCTAA, 1 ± 0.036. As for GTCACAACGG, the figure is 0.999 ± 0.024.

For GGGGCGTCGT, the switch fluorescence ratio is 1.02 ± 0.029. The value for ACCATCGTAG was 1.0191 ± 0.00047.

Regarding GGTGCCTGAG, the switch fluorescence ratio was determined as 1.06 ± 0.03. With TTGGGTCGTT, the switch fluorescence ratio amounted to 0.994 ± 0.014.

With GCTTTCATTT, the switch fluorescence ratio came out at 1.013 ± 0.0049. Take ACTTTGGTGG: the switch fluorescence ratio is 1 ± 0.029. As for TGAAGAGGAT, the figure is 1.09 ± 0.15; as for GCAGCTTTTA, 1.09 ± 0.018; as for GGGAATAAGC, 0.978 ± 0.034. As for ACATAGATTT, the figure is 1.03 ± 0.029. The value for AAAGACAGTG was 1.01 ± 0.058; that for GGGGTAGGAC was 1.01 ± 0.017. In the case of TTATCACTCG, the switch fluorescence ratio came out at 1.01 ± 0.0054. AAGTCTTTTC: the switch fluorescence ratio turned out to be 0.975 ± 0.036. As for AGTATTGGTT, the figure is 0.986 ± 0.021. As for TAAAAAAAGG, the switch fluorescence ratio stood at 1.05 ± 0.067. As for ATCGGTGTGT, the figure is 0.989 ± 0.045. As for ATACAGGAAC, the figure is 1.03 ± 0.038. As for GGGGTTTTAA, the figure is 0.988 ± 0.02. As to GGGTTCTATG, the switch fluorescence ratio came to 1.004 ± 0.0042.

Regarding ATAATAGGGC, the switch fluorescence ratio was 1 ± 0.015. As for TTTTTAGAGA, the figure is 0.9912 ± 0.007; as for AGTGCGGCCG, 0.9846 ± 0.0036; as for GGGTCACAAA, 0.978 ± 0.01.

Consider GACGTGAGGT, for which the switch fluorescence ratio was 1.017 ± 0.0012. For GGGGACAAGT, the switch fluorescence ratio is 1.0212 ± 0.00058. The value for CAGCTGTCGG was 1.1 ± 0.12. The value for GCAGGAGTAG was 1.01 ± 0.038. Take ACGTTTAGTG: the switch fluorescence ratio was found to be 1.02 ± 0.016. As for CGCGTCGGGA, the figure is 0.976 ± 0.044; as for TCGTGGGGGG, 0.991 ± 0.031; as for CAGGCTGTCG, 1.02 ± 0.036. As for CGGGTTCTTT, the figure is 1.03 ± 0.11; as for TGCAACGTAT, 1.13 ± 0.19; as for AAGCTAATTC, 1.186 ± 0.0069.

Regarding AATGGGTTTG, the switch fluorescence ratio was 1.01 ± 0.03.

Take TTGGTATGAG: the switch fluorescence ratio was 0.997 ± 0.013. Consider GGGAAGGTAC, for which the switch fluorescence ratio came to 1.047 ± 0.0014. As for GGGTATCCGT, the figure is 0.979 ± 0.032. The value for ATCGATTTCT was 1.004 ± 0.0049; that for AAGAGCTTTG was 0.99 ± 0.013; that for AAAGTAGGTA was 0.976 ± 0.011. As for CAGTATGGGA, the figure is 0.999 ± 0.02; as for TATAGGTCGA, 1.03 ± 0.011; as for TCCTGGGTAT, 1.69 ± 0.98. For the sequence TTCGCATATT, the switch fluorescence ratio came out at 1.47 ± 0.26.

Turning to AAGGTATCAT, the switch fluorescence ratio turned out to be 0.978 ± 0.018. The value for ACGAGAAGTT was 1.1 ± 0.073. As for TGAGTCTTAA, the figure is 1.01 ± 0.027.

In the case of CGCTAAAGCC, the switch fluorescence ratio was 1.156 ± 0.003. As for AGTAGGAAGC, the figure is 1.01 ± 0.03; as for GATTTGAGGC, 0.987 ± 0.018. The value for GGCAATTAGG was 1.04 ± 0.048; that for GAATTTATGG was 0.985 ± 0.023. The value for CCTCAAAAAA was 2.98 ± 0.2; that for GCCTCTATTT was 0.968 ± 0.019. On to ATCAGTTCCT, for which the switch fluorescence ratio is 1.04 ± 0.013. As for CATTAGTGGG, the figure is 0.988 ± 0.011; as for AGGCTTAGAC, 1.04 ± 0.032; as for GAGTGGCTGG, 0.979 ± 0.014.

Take TGGCTGGGCT: the switch fluorescence ratio was 1.03 ± 0.05. As for TTATTTCGAA, the figure is 1.01 ± 0.012. The value for AGGTAGTTTT was 0.982 ± 0.011; that for AAGGGCGGGA was 1.02 ± 0.086; that for TTTTGCGCTG was 0.94 ± 0.019. As for TAGAAAGTGT, the figure is 1.02 ± 0.019. As for TTATGCGGTT, the switch fluorescence ratio came out at 0.992 ± 0.02.

Regarding TTACTTGAAT, the switch fluorescence ratio was 0.969 ± 0.039. As for GACGACTTGA, the figure is 1.02 ± 0.042. As for TCGCGGCTAT, the figure is 1.56 ± 0.61; as for GTTGGTATTT, 0.971 ± 0.023; as for AAAAACAGGG, 1.16 ± 0.097. As for TTAGCAAATA, the switch fluorescence ratio amounted to 1.155 ± 0.0099. As for GGTGCGGCTG, the figure is 1.01 ± 0.073; as for TCTGCTAAAG, 1.01 ± 0.022; as for GGGGAGTAGT, 1.01 ± 0.024. As for GGCGCTTATT, the figure is 0.963 ± 0.014; as for ATAATGGTTT, 0.987 ± 0.056; as for CGGCGGCGGG, 1.03 ± 0.015. The value for CTCGGGATGG was 1.74 ± 0.98; that for CGGTGTATTC was 0.988 ± 0.011. Regarding TATGTGGGAT, the switch fluorescence ratio came out at 0.9734 ± 0.0016. As for ATAAGTGAAT, the figure is 1.01 ± 0.013; as for AAAAAAATAG, 1.03 ± 0.014; as for ATAGTCTTTT, 1.02 ± 0.034. As for TTTTTTTAGG, the switch fluorescence ratio amounted to 0.982 ± 0.03. As for GGGGTAGCGA, the figure is 0.992 ± 0.051; as for TAATTTTATA, 0.9789 ± 0.0046. The value for AGAGAGGGCG was 0.888 ± 0.14; that for TGCCAATATG was 1.06 ± 0.014. As for TGAAATTCTT, the figure is 1.012 ± 0.0094; as for TTTTTCGAGG, 0.997 ± 0.025.

Turning to TGGGGAAAGA, the switch fluorescence ratio came out at 1.01 ± 0.034. The value for GTGATTTATT was 0.988 ± 0.019; that for GATAAATAAA was 1 ± 0.02. As for TATAGGGCC, the switch fluorescence ratio is 1 ± 0.017.

On to TGGAGTAACT, for which the switch fluorescence ratio came out at 1.0876 ± 0.00087. The value for GCAGTCTGGT was 0.98106 ± 0.00091; that for ATTAGGGTCT was 0.986 ± 0.025. The value for CGTATTTTGC was 1.03 ± 0.066; that for GGGAAAGCAC was 1.12 ± 0.021; that for TGGTTTCAGG was 1.01 ± 0.025. For TGAGAAGGAA, the switch fluorescence ratio was 1.033 ± 0.0093. For GTTGAAACAC, the switch fluorescence ratio was 1.02 ± 0.046.

For TTTGTCAAGG, the switch fluorescence ratio is 1.02 ± 0.015. As for GTGTTTGGGG, the figure is 0.977 ± 0.023; as for ATTTCAGGGG, 1.09 ± 0.061. CGTGTGAGAG: the switch fluorescence ratio turned out to be 0.986 ± 0.021. The value for GTTTCCTGGG was 1.03 ± 0.082; that for AAGGGGGCCC was 0.99 ± 0.021; that for AGGCTTTTTT was 0.966 ± 0.065. The value for CATAGCATCC was 1.48 ± 0.2. As for TTATGCGGAT, the figure is 1.02 ± 0.015. As to GCTGGGGGAG, the switch fluorescence ratio worked out at 0.982 ± 0.067.

On to AAAATGTTTC, for which the switch fluorescence ratio is 1.02 ± 0.02.
